Results on 1 molecule are retold here after US20200190193A1 (INHIBRX, published 2020).

This assay has as its target human PD-1 (programmed cell death protein-1) (human, UniProt Q15116 25-288). The assay can be described thus: flow cytometry on enriched, anti-CD3-activated human T cells; sdAb-Fc titrated 167 nM to 0.00847 nM, anti-human IgG Alexa Fluor 647 detection. For orientation: A flow cytometer gives signals particle by particle.

Sequence of human PD-1 (programmed cell death protein-1) (Q15116 25-288 limits assumed): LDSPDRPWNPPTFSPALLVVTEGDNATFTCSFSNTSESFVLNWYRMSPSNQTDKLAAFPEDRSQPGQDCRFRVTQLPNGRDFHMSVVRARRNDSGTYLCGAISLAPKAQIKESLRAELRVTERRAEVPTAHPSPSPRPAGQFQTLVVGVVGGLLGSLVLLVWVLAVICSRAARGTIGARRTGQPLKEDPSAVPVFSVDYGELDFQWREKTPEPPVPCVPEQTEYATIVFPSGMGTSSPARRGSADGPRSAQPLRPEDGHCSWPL
Protocol: For enrichment and activation of human T cells, Peripheral blood mononuclear cells (PBMCs) were isolated from human donor blood using density gradient centrifugation. Blood samples were diluted with PBS/2% FBS (1:2) and 30 mL of diluted blood was layered onto 15 mL of Lymphoprep density gradient medium. After centrifugation, the PBMC layer at the interphase of plasma and Lymphoprep was removed and remaining red blood cells were lysed using red blood cell lysis buffer for 5 minutes at room temperature. Non-T cell populations were labeled with biotinylated anti-lineage marker antibodies against CD14, CD16, CD19, CD20, CD36, CD56, CD123, TCR γ/δ (20 minutes, room temperature) and depleted using magnetic streptavidin particles. The unbound cell supernatant containing the T cell fraction was retained. Enriched human T cells were activated for 3 days by plating them at a density of about 2×10⁶ cells per mL media in tissue culture plates coated with 1 μg/mL mouse anti-human CD3 (OKT3). Activated T cells were washed once in PBS before further use in binding assays.

B1: hz18H10v7 PD-1 sdAb-Fc fusion protein (humanized variant of 18H10) (Fc fusion)
chain: EVQLVESGGGEVQPGGSLRLSCAASGSITGANTMGWYRQAPGKQRDLVALIGNYVTHYAESVKGRFTISRDNAKNTVYLQMSSLRAEDTAVYYCYLYTDNLGTSWGQGTLVTVKP
notes: also called humanized 18H10 (hzv7); hzv7; not shown: hinge/linker and Fc of the sdAb-Fc fusion are not specified for the humanized variants
In the case of B1, the binding result was “binds”.
